This note sets out measurements from US20120076815A1.

The target of the experiment is recombinant TcPRACA proline racemase of Trypanosoma cruzi (subunit) (Trypanosoma cruzi) (UniProt Q4DA80). Description: cell-based or functional assay.

Consider “recombinant TcPRACA proline racemase of Trypanosoma cruzi (subunit) (from UniProt Q4DA80 30-423) (enzyme)”, for which the % racemization (fraction B1, start of the dimer peak) was 35.5%; the % racemization (fraction B2, dimer peak, about 80 kDa) stood at 62.9%; the % racemization (fraction B4, monomer peak, about 43 kDa) turned out to be 0.7%; the % racemization (fraction B5, end of the monomer peak) came out at 0%.
